{
  "source": "paper PMC6284238",
  "substrate": "NC(=O)c1ccc[n+]([C@@H]2O[C@H](COP(=O)([O-])OP(=O)(O)OC[C@H]3O[C@@H](n4cnc5c(N)ncnc54)[C@H](O)[C@@H]3O)[C@@H](O)[C@H]2O)c1",
  "assay": "Michaelis-Menten kinetics of NAD+ cleavage by purified SARM1-TIR, HPLC",
  "assay_type": "biochemical, Homo sapiens",
  "conditions": "E642 is a putative key catalytic residue within the active site",
  "data": [
    {"protein": "SARM1-TIR (Homo sapiens) (protein) DTPDVFISYRRNSGSQLASLLKVHLQLHGFSVFIDVEKLEAGKFEDKLIQSVMGARNFVLVLSPGALDKCMQDHDCKDWVHKEIVTALSCGKNIVPIIDGFEWPEPQVLPEDMQAVLTFNGIKWSHEYQEATIEKIIRFLQGRS", "values": [
      {"measurement": "Km", "result": 24, "unit": "µM"}
    ]}
  ]
}
